The results in this text go back to paper PMC6211522.

Test [1] addresses MHV-68 viral PARP-1-interacting protein (vPIP; ORF49), purified recombinant (murine gammaherpesvirus 68 (MHV-68)). The test is described as follows: SEC-MALS; 50 mM HEPES pH 7.5, 100 mM NaCl; WTC-050S5 column, DAWN HELEOS II and Optilab T-rEX detectors.
Test [2] concerns the target His-tagged mouse PARP-1 protein (Sino Biological) (mouse) (UniProt P11103). The test can be described thus: SPR; […], CM5 chip; […], HBS-EP (10 mM HEPES pH 7.4, 150 mM NaCl, 3 mM EDTA, 0.005% P20); 1:1 binding model.
UniProt P11103, sequence (P11103 whole entry): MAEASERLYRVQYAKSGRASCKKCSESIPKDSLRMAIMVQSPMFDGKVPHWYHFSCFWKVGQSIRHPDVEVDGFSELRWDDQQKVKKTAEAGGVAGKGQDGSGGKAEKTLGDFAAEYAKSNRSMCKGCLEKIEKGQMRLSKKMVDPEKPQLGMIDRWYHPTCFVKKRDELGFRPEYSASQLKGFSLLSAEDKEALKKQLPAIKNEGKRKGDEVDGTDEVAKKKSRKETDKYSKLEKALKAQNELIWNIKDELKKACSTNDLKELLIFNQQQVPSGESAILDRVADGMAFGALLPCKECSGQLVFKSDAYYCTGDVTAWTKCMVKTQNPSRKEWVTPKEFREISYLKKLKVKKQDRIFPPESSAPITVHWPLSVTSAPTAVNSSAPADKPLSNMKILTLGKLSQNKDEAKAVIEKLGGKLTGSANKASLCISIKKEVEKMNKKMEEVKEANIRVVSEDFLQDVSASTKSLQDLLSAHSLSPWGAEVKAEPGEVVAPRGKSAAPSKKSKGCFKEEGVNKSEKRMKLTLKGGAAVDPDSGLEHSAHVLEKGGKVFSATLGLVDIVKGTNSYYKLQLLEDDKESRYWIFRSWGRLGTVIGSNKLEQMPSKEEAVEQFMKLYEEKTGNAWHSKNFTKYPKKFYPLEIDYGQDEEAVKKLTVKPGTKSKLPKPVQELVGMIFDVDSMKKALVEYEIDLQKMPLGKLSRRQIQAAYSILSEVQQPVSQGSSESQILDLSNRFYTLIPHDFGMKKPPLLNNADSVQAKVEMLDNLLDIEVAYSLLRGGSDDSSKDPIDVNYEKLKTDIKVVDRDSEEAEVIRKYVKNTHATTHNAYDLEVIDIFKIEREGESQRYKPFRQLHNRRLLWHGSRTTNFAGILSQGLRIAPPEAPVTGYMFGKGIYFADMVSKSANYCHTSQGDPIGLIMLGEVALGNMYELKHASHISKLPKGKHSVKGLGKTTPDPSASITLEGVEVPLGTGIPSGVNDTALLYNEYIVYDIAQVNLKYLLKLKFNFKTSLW
The target of test [3] is FLAG-tagged PARP-1 in HEK293T cells (UniProt P09874). The test can be described thus: co-IP (anti-FLAG) and Western blotting, band intensity by ImageJ. As to conditions: 48 h post-transfection, parent: 1.0.
UniProt P09874, sequence (P09874 whole entry): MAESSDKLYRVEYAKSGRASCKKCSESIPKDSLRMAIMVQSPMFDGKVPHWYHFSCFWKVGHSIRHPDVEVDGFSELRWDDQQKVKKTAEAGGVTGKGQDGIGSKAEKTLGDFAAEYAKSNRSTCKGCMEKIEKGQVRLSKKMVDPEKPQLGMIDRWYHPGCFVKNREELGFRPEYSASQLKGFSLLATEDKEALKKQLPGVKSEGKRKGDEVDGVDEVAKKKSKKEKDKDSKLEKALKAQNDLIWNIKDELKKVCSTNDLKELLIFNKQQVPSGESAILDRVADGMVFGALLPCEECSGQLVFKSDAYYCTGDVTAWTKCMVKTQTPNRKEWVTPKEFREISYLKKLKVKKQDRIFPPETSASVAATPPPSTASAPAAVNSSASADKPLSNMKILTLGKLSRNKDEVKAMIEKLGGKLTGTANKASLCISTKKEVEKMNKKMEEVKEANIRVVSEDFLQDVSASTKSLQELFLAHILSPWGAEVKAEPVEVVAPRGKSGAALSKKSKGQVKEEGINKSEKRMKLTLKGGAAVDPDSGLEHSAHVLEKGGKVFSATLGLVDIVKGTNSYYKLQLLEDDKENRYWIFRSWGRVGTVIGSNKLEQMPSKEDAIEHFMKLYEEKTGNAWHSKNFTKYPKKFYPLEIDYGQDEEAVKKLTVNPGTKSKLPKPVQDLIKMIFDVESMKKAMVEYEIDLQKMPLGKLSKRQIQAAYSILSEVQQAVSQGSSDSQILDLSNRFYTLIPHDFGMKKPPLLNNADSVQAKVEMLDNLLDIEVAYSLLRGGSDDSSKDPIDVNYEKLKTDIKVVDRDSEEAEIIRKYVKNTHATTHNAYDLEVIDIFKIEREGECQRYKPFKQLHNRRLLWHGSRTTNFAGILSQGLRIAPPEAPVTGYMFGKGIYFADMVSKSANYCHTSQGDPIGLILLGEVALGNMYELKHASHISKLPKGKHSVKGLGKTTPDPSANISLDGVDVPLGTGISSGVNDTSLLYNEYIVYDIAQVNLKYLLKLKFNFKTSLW

Consider “MHV-68 viral PARP-1-interacting protein (vPIP; ORF49), purified recombinant (natural protein)”, for which, in test [1], the stoichiometry N came out at 2. The substance further showed a Kd in test [2] of 930 nM.

Regarding “MYC-tagged vPIP wild type in HEK293T cells F5A; S12A; T16A”, in test [3], the ratio to parent was 0.5.

Take “MYC-tagged vPIP wild type in HEK293T cells F5A; S12A; T16A; H47A; D50A”: the ratio to parent in test [3] came to 0.3.

On to “MYC-tagged vPIP wild type in HEK293T cells H47A; D50A”, for which the ratio to parent in test [3] was found to be 1.4.

For the substance “ORF49_(KSHV), purified recombinant (natural protein)”, the Kd in test [2] was 410 nM.
